Measurements as given in article PMC12038257, “The transcription factor MdWRKY9 is involved in jasmonic acid-mediated salt stress tolerance in apple”.

Target: MdWRKY9 (Malus domestica (apple)?, UniProt D9ZJG3 1-520)
Test: EMSA; EMSA buffer, salt, pH and temperature not given (refers to earlier method, ref. 35); GST added to equalize protein in JAZ assays
Settings: protein: recombinant; tags: His (pET32a(+)); label: 3' biotin; blunt

Sequence of MdWRKY9 (D9ZJG3 entry or part of it): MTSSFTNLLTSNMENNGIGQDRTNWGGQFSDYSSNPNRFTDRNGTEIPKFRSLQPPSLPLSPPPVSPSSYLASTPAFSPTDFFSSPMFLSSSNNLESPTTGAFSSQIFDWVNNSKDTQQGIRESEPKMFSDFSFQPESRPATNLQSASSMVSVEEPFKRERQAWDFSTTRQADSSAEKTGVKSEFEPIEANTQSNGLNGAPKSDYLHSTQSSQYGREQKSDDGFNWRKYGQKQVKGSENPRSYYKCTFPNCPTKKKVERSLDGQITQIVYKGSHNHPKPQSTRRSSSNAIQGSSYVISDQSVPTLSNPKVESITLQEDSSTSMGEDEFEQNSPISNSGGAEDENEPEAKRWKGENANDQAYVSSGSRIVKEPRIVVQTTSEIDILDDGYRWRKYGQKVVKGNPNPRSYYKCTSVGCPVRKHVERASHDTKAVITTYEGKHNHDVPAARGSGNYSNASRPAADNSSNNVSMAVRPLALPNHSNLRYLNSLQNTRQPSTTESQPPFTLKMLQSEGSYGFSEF

B1: MdSOS2 W-box W3 (-303), probe 2 (dsDNA)
DNA 1: TATGAAAACTGGAACTTGGGTTGACTGAATTTACTTCTAATTTCAT
DNA 2: ATGAAATTAGAAGTAAATTCAGTCAACCCAAGTTCCAGTTTTCATA
B1: binds.

B2: MdSOS2 W3 mutant probe (dsDNA)
DNA 1: TATGAAAACTGGAACTTGGGTTTCCTGAATTTACTTCTAATTTCAT
DNA 2: ATGAAATTAGAAGTAAATTCAGGAAACCCAAGTTCCAGTTTTCATA
B2: no binding.

B3: MdSOS3 W-box probe 1 (W4, -127) (dsDNA)
DNA 1: TAGTGAAGCACATCCGCTCTAGTCAAAGCAGCTACGCTCACGCGTG
DNA 2: CACGCGTGAGCGTAGCTGCTTTGACTAGAGCGGATGTGCTTCACTA
B3: no binding.

B4: MdNHX1 W-box W1 (-1255) (dsDNA)
DNA 1: ATCATATTTTTACACTAAAAAGTCAATCTTGGTACTATTTATCTTA
DNA 2: TAAGATAAATAGTACCAAGATTGACTTTTTAGTGTAAAAATATGAT
B4: binds.

B5: MdNHX1 W1 mutant probe (dsDNA)
DNA 1: ATCATATTTTTACACTAAAAAGGAAATCTTGGTACTATTTATCTTA
DNA 2: TAAGATAAATAGTACCAAGATTTCCTTTTTAGTGTAAAAATATGAT
B5: no binding.

B6: MdSOS2 W-box W2 (-149), probe 1 (dsDNA)
DNA 1: TCACAGCCACGTGAATTGAATTGACCAATTTTCCAATTCTGTTTAT
DNA 2: ATAAACAGAATTGGAAAATTGGTCAATTCAATTCACGTGGCTGTGA
B6: binds.

B7: MdSOS2 W2 mutant probe (dsDNA)
DNA 1: TCACAGCCACGTGAATTGAATTTCCCAATTTTCCAATTCTGTTTAT
DNA 2: ATAAACAGAATTGGAAAATTGGGAAATTCAATTCACGTGGCTGTGA
B7: no binding.
